Assay results as given in patent US20160340395, “POLYPEPTIDE TAGGING FUSIONS AND METHODS” (REGENTS OF THE UNIVERSITY OF MINNESOTA, published 2016).

Experiments:
GeneA* HUH (Y131H) [1] = molecular target: T1, GeneA* HUH (Y131H) (PhiX174, UniProt P03631 SEQ:1-340); assay: covalent adduct by SDS-PAGE; settings: tags: N-terminal His6-SUMO; label: FAM
T1 chain: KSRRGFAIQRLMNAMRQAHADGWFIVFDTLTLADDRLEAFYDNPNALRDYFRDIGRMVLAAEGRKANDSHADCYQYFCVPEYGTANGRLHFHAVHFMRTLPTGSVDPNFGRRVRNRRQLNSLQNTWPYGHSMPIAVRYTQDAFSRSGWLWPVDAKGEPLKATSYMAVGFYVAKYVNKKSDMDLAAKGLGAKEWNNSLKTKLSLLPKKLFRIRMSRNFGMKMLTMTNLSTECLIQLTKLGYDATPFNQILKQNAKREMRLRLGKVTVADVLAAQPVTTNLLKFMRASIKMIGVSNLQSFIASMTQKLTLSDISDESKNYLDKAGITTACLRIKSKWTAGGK
Method: The reaction time is extremely fast. […] Product is observed after a reaction time of only five minutes.
(§1) Unless otherwise noted, gel-shift assays were performed in HUH buffer; 50 mM Hepes pH 8, 50 mM NaCl, 1 mM MgCl₂ and 1 mM MnCl₂, incubated at 37° C. for 15 minutes unless otherwise noted, and quenched with 4× loading buffer. The reactions were analyzed by either electrophoresis on 4-20% polyacrylamide gels stained with Coomassie Blue or Bio-Rad Stain-Free gels. For comparison of covalent adduct formation of SNAP and DCV, 25 pmol of SNAP/DCV proteins were mixed with 100 pmol respective DNA-oligo in SNAP/HUH buffer. 4×SDS loading buffer was added at indicated times to quench. SNAP buffer: 50 mM Hepes pH8, 50 mM NaCl, and 5 mM β-mercaptoethanol. Specificity reactions of HUH-proteins with each target-oligo were performed in HUH buffer with 150 mM NaCl.

[2] = molecular target: T2, mMobA minimal relaxase domain (Escherichia coli, UniProt P07112 SEQ:1-186); assay: covalent adduct by SDS-PAGE; 1 uM protein, 5 uM DNA, 30 min 37 C; settings: tags: N-terminal His6-SUMO; label: Cy3
T2 chain: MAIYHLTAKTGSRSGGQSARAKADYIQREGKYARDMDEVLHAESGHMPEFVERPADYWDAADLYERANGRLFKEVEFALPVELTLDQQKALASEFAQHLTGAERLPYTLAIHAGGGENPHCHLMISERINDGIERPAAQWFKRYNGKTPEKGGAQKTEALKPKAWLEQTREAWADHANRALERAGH
Method: (§2) The HUH endonuclease-based protein tags described herein allow one to orthogonally label proteins in cells.
as §1

GeneA* HUH (Y131H) [3] = molecular target: T1, GeneA* HUH (Y131H); assay: no cross-reactivity in mixture; settings: tags: N-terminal His6-SUMO; label: Cy5
RepB HUH domain = molecular target: T3, RepB HUH domain (Streptococcus agalactiae, UniProt P13921 SEQ:1-132); assay: covalent adduct by SDS-PAGE; 1 uM protein, 5 uM DNA, 30 min 37 C; settings: tags: N-terminal His6-SUMO; label: FAM
T3 chain: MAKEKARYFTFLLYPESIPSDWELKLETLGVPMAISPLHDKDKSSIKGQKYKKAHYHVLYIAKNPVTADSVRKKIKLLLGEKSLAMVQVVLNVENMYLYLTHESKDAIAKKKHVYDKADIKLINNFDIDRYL
Method: as §2, §1

TCGACAACTTGATATTAATAACACTATAGAC (ssDNA) [GeneA target]
binding result (GeneA* HUH (Y131H) [1]): binds

CCAGTTTCTCGAAGAGAAACCGGTAAATGCGCCCT (ssDNA) [mMobA target]
binding result [2]: binds

AAGTATTACCAG (ssDNA) [PCV2 ori target]
binding result (GeneA* HUH (Y131H) [3]): no binding

TGCTTCCGTACTACGACCCCCCA (ssDNA) [RepB target]
binding result (RepB HUH domain): binds
